Test results from patent US20230174617A1.

Key:
[1] = molecular target: recombinant human neonatal Fc receptor (rhFcRn, R&D systems) (human) (UniProt P55899); experiment: SPR (Biacore 8K), rhFcRn amine-coupled on CM5, analyte in PBST pH 6.0, steady state affinity
[2] = molecular target: recombinant human neonatal Fc receptor (rhFcRn, R&D systems) (human) (UniProt P55899); experiment: SPR, rhFcRn on CM5, analyte in PBST pH 6.0, steady state affinity

Kd [1]	Kd [2]	Substance
2090 nM		dulaglutide (trade name Trulicity) (Fc fusion)
	2390 nM	Rituximab (antibody)
